Measured values from the nanobody polyreactivity screen of Harvey et al. (2022).

Assay: yeast display, Sf9 membrane polyspecificity reagent, FACS + sequencing; frameworks hold sequencing errors
Outline: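 Galactose induction of a Saccharomyces cerevisiae BJ5465 synthetic nanobody display library ran 36–48 hours. The cells were then stained for 1 hour at 4 °C with 10% biotinylated, detergent-solubilized Sf9 membrane reagent, pulled down on streptavidin microbeads and FACS-sorted into low and high (top ~1%) gates on expression and reagent-binding fluorescence. Labels for polyreactivity follow the gate of origin.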

Row | Sequence | polyreactivity (PSR sort gate)
1 | QVQHVESGGGLVQAGGSLRLSCAASGRTFRRNAVGWYRQAPGNERELVATISRGGSTTYADSVKGRFTISRDKAKNTVYLQMNSLKPEDTAVYYCAARTSKRYSYADHDYWGQGTQVTVSS | low polyreactivity
2 | QVQLVESGGGLVQAGGSLRLSCAASGRIFQGYAMGWYRQAPGKERELVAAISYRGASTYYADSVKGRFTISRDNAKNTVYLQMNSLKPEDTAVYYCAKVTPTSTRGHDYWGQGTQVTVSS | low polyreactivity
3 | QVQLVESGGGLVQAGGSLRLSCAASGSIFGSNAMGWYRQAPGKERELVAAITSRGGSTYYADSVKGRFTISRDNAKNTVYLQMNSLKPEDTAVYYCAADYQSVGGAEYDYWGQGTQVTVSS | high polyreactivity
4 | QVQLVESGGGLVQAGGSLRLSCAASGFTFPIYAMGWYRQAPGKERELVAAITTRGGRTYYADSVKGRFTISRDNAKNTVYLQMNSLKPEDTAVYYCTTRGRRTDYDYWGQGTQVTVSS | high polyreactivity
5 | QVQLVESGGGLVQAGGSLRLSCAASGSIFGPYAMGWYRQAPGKERELVARITLSAGNTYYADSVKGRFTISRDNAKNTVYLQMNSLKPEDTAVYYCAAKVYSKYWFVGNYWGQGRQVTVSS | high polyreactivity
6 | QVQLVESGGGLVQAGGSLRLSCAASGRIFYPYAMGWYRQAPGKERELVAAISRSGGSTYYADSVKGRFTISRDNAKNTVYLQMNSLKPEDTAVYYCAAEVVYFYSDAHIGYVDYEYWGQGTQVTVSS | low polyreactivity
7 | QVQLVESGGGLVQAGGSLRLSCADSGRIFSWNAMGRYRQAPRKERELVAAISSSGARTYYADSVKGRFTISRDNAKNTVYLQMNSLKPEDTAVYYCIAARSSQHYYSYNYWGQGTQVTVSS | high polyreactivity
8 | QVQLVESGGGLVQTGGSLRLSCAASGRTFGYNAMGWYRQAPGKERELVASISYSGGSTYYADSVKGRFTISRDNAKNTVYLQMNSLKPEDTAVYYCAAKYWYWQSPSKYYYWGQGTQVTVSS | high polyreactivity
9 | QVQLVESGGGLVQAGGSLRLSCAASGSIFRFYTMGWYRQAPGKQRELVAAISASGGNTYYADSVKGRFTISRDNAKNTVYLQMNSLKPEDTAVYYCARVKFTKYDYWGQGTQVTVSS | high polyreactivity
10 | QVQLVESGGGLVQAGGSLRLSCAAYGGFFWYYTMGRYRQAPGKEREFVATITKRGGRTYYADSVKGRFTISRDNAKITVYLQMNSLKPEDTAVYFCNALGGPKSVRFDYWGQGTQVTVSS | high polyreactivity
11 | QVQLVESGGGLVQAGGSLRLSCAASGFTFGSYAMGWYRQAPGKERELVAAISWGGGSTYYADSVKGRFTISRDNAKNTVYLQMNSLKPEDTAVYYCNADAISSFGYWGQGTQVTVSS | high polyreactivity
12 | QVQLVESGGGLVQAGGSLRLSCAASGSTFGPYAMGWYRPAPGKERELVAAIRSGGSTYYADSVKGRFTISRDNAKNTVYLQMNSLKPEDTAVYYCAAGGHHSYTYWIYYYWGQGTQVTVSS | low polyreactivity
13 | QVQLVESGGGLVQAGGSLRLSCAASGRIFTQNAMGWYRQAPGKERELVAAITSGGSTYYADSVKGRFTISRDNAKNTVYLQMNSLKPEDTAVYYCAAEYGTYFVRYYAGASYRYGYWGQGTQVTVSS | low polyreactivity
14 | QVQLVESGGGLVQAGGSLRLSCAATGFTYYRNARGSYRQAPGKERELVAAISGSGGSTYYADSVKGRFTISRDNATNTVYLQMNSLKPEDTAVYYCAAAAGSYNSGNGYWGLGTQVTVSS | high polyreactivity
15 | QVQLVESGGGLVQAGGSLRLSCAASGRIFRTYALGWYRQAPGKERELVAAINSGGTTYYADSVKGRFTISRDNAKNTVYLQLNSLKPEDTAVYYCNAEYYYAFLRLWYDYWGQGTQVTVSS | high polyreactivity
16 | QVQLVESGGGLVQAGGSLRLSWAASGGIFKVYGMRWYRQAPGKERELVAAISWTTGGTYYADSVKGRFTISRDNAKNTVYLQMNSLKPEDTAVYYCAAEYADSWSAFDWNYYYWGQGTQVTVSS | high polyreactivity
17 | QVQLVESGGGLVQAGGSLRLICAASGSTFSSYAMGLYIQAPGKEREFVAAINTDGGSTYYADSVKGRFTISRDNAKNTVYLQMNSLKPEDTAVYYCAADDISLAAHFDSWGQGTQVTVSS | low polyreactivity
18 | QVQLVESGGGLVQAGGSLRLSCAASGRTFYTNAMGWYRQAPGKERELVAAITRGGSTYYADSVKGRFTIPRDNAKNTVYLQMYSLKPEDTAVYYCAAAYASSWRQRVTSEKGYYWGQGTQVTVSS | high polyreactivity
19 | QVQLVESGGGLVQAGGSLRLSCAASGFIIYRNPMGWYRQAPGKERELVAGISSGGSTNYADSVKGRFTISRDNEKNTVYLQMNSLKPEDTAVYYCASRVYALWFGRYDYWGQGTQVIVSS | high polyreactivity
20 | QVQVVESGGGLVQAGGSLRLSCAASGFTSTRYAMGWYRQAPGKERELVAAISYGGGDTYYADSVKGRFTISRDNAKNSVYLQMNSMKPEDTAVYYCNARGRYRKSERRAFDYWGQGTQVTVSS | high polyreactivity
21 | QVQLVESGGGLVQAGGSLRLSCAASGRIFQGYVMGWYRQAPGKERELVAAITTGGSTYYADSVKGRFTISRDNAKNTVYLQMNSLKPEDTAVYYCYAVVYVSGYNPYIFGYWGQGTQVTVSS | low polyreactivity
22 | QVQLVESGGGLVQAGGSLRLSCAASGSTFSVYGMGWYRQGPGKERELVAAISGYGSRRYYADSLKGRFTISRDNAKNTVYLQMNSLKPEDTAVYYCAAVRRLLQGRTMYYWGQGTQVTVSS | high polyreactivity

Row | Sequence | polyreactivity (PSR sort gate)
23 | QVQLVESGGGLVQAGGSLRLSCAASGRIFNRYAMGWYRQAPGKERELVAAITSGGDTNYADSVKGRFTISRDNAKNTVYLQMNSLKPEETAVYYCAAYLYPWYSRYYYWGQGTQVTVSS | high polyreactivity
24 | QVQLVESGGGLVQAGGSLRLSCAASGSTFKPNVMGWYRPAPGKERELVAAITSTDDRTYYADSVKGRFTISRDNAKNTVYLQMNSLKPEDTAVYYCNRPYAWYGYIYNYWGQGTQVTVSS | low polyreactivity
25 | QVQLVESGGGLVQAGGSLRLSCAASGFTFHHYAMGWYRQAPGKERELVAAITRSGGTTYYADSVKGRFTISRDNAKNTVYLQMNRLKPEDTAVYYCAADTGAKRYYRYDYWGQGTQVTVSS | high polyreactivity
26 | QVQLVESGGGLVQAGGSLRLSCAASGITFDNYAMGWYIQAPGKERELVAAITSGDGTYYADSVKWRFTISRDNAKITVYLQMNSLKPEDTAVYACAVQGSRTENYDWYYYGGQGTQVTVSS | low polyreactivity
27 | QVQLVESGGGLVQAGGSLRLSCAASGSIFVIYAMGWYRQAPGKERELVAAISRSGGRTYYADSVKGRFTISRDNAKTTVYLQMNSLKPEDTAVYYCAAEGSTYQGAPGVYYWGQGTQVTVSS | high polyreactivity
28 | QVQLEESGGGLVQAGGSLRLSCAASGMILTYYAMAWNRQAPGKERELVAGISSGTNTNYADSVKWRFTISRDNAKNTVYLQMNSLKPEDTAVYYCANTRGYEFVAYGYWGQGTQVNVSS | low polyreactivity
29 | QVQLVESGVGLDQAGGSLRLSCAASGGIIAINAMGWYSQAPGKERELVAAISWGDGMTYYADSVKGRFTISRDNAKNTVYLQMNSLKPDDSAVYYCAADADEYRGGDVSWGQGTQVTVSS | low polyreactivity
30 | QVQLVESGGGLVQAGGSLRLSCAASGSTFGHYTMGWYRQAPGKERELVAAITYSGGRTYYADSVKGRFTISRDNAKNTVYLQMNSLKPEDTAVYYCNAKSFRILDNFAYRVDYDYWGQGTQVTVSS | low polyreactivity
31 | QVQLVESGGGLVQAGGSLRLSCAASGSIFYVNTMVWYRQAPGKERELVAGITSRGGSTYYADSVKGRFTISRDNAKNSVYLQMNSLKPEDTAVYYCAKRAYGTALYRGYGYWGQGTQVTVSS | low polyreactivity
32 | QVQLVESAGGLVQARGSLRLSCAASGRIFVPYAMGWYRQAPGKERELVAVISRGGSTYYADSVKGRFTISRDNAKNTVYLQMNSLKPEDTAVYYCAVASKLALQPWYDYWGQGTQVTVSS | high polyreactivity
33 | QVQLVESGGGLVQAGGSLRLSCAASGIIFSQYAMGWYRQAPGKERELVATITSRGASTYYADSVKGRFTISRDNAKNTVYLQMNSLKPEDTAVYYCAATVRRRYERYNYWGQGTQVTVSS | high polyreactivity
34 | QVQLVESGGGLVQAGGSLRLSCAASGSIFGKYTMGWYRQAPGKERELVAAITSGGSTNYADSVKGRFTISRDNAKNSVYLQMNSLKPEDTSVYYCAAPGTWIPSSTECGDGYDYWGQGTQVTVSS | low polyreactivity
35 | QVQLVESGGGLVQAGGSLRLSCAASGRIFQLYTMGWYRQAPGKERELVAAITSGTSTSYADSVKGRFTISRDNAKNTVYLQMNSLKPEDTAVYYCNKGSVSYSSVFVPYESDYWGQGTQVTVSS | low polyreactivity
36 | QDQLVESGGGLVQAGGSLRLSCAASGRTFKINAMGWYRHAPGTERELVAAITYSGCTTYYADSVKGRFTISRDNAKNTVYLQMNSLKPEDTAVYYCATPSRKSGVGYPSYNYWGQGTQVTVSS | high polyreactivity
37 | QVQLVESGGGLVQARGSLRLSCAASGRIFRKYDMGWYRQAPGKERELVAAISGTGITYYADSVKGRFTISRDNAKNTVYLQMNSMKPEDTAVYYCARGSKPRAWSWAYPSDTSIYDYWGQGTQVTVSS | low polyreactivity
38 | QVQLVESGGGLVQAGGSLRLSCAASGSTFIAYAMGWYRQAPGKESELVAAITSGDGTYYADSVKGRFTISRDNAKNTVYLQMNSLKPEDTAVYYCAVGYYWNEPLYWYGDFDYWGQGTQVTVSS | high polyreactivity
39 | QVQLVESVGGLVQAGGILRLSSAASGSTFERYAMGWDRQAPGKEREFVATINWGGGSTYYADSVKGRFTISRDNAKKTVYLQMNSLKPEDTAVDYCNAYVLYQSWRFSYDYWGQGTHVTVSS | low polyreactivity
40 | QVQLVESGGGLVQAGGSLRLSCAASGFIFRYYARGWYRQAPGKERELVAAISSTGGSTSYADSVKGRFTISRDNAKNTVYLQLNSQKPEDTAVYDCAADYWIRRRTYGQLYRPYYYWGQGTQVTVSS | high polyreactivity
41 | QVQLVESGGGLVQAGGSLRLSCAASGSIFSYYAMGWYRQAPGKERELVARITRGGDGTYYADSVKGRFTISRDNAKNTDYLQMNSLKPEDTAVYYCARRQVLYTRDFEYDYWGQGTQVTVSS | low polyreactivity
42 | QVQLVESGGGLVQSGGSLRLSCAASGSTFTSNTMGCYRQAPGKESEIVAGITWRGGSTYYADSVKGRFTISRDNAKNTVYLQMNSLKPEDTAVYYCAAYGYSKDVWNFYYWGQGTQVTVSS | low polyreactivity
43 | QVQLVESGGGLVQAGGSLRLSCAASGRIFRYYAMGWYRQAPGKERELVAAISSSGGSTYYADSVKGRFTISRDNAKNTVYLQMNSLKPEDTAVYYCNTVGSVGKKRDYWGQGTQVTVSS | high polyreactivity
